Test results reported in patent publication US20250222125A1, “Anti-FGFR2b Antibodies, Conjugates and Methods of Use” (BeiGene, Ltd., priority 2024, published 2025).
“Also recorded” adds a separate entry of the source.

B1: BGAh9239: humanized anti-FGFR2b IgG1 antibody from murine BGAm1823; VH SEQ ID NO: 9, VL SEQ ID NO: 10 (antibody, V domains shown)
VH: QVQLVQSGAEVKKPGSSVKVSCKASGYTFSIYWLNWVRQAPGQGLEWMGQIYPENADTNYSGKFKGRVTITADKSTSTAYMELSSLRSEDTAVYFCARGGFDYWGQGTLVTVSS
VL: DIQMTQSPSSLSASVGDRVTITCRASENIYSNLAWYQQKPGKAPKLLIYTATNLAEGVPSRFSGSGSGTDFTLTISSLQPEDFATYYCQHFYGILYTFGQGTRLEIK
modifications: Synthetic: VH AA; Synthetic: VL AA
B2: BGAm1371: parental murine anti-FGFR2b antibody (parental mouse clone); VH SEQ ID NO: 32, VL SEQ ID NO: 34 (antibody, V domains shown)
VH: QVQLKQSGAELVKPGASVKLSCTASGFNIKDTYIHWVKQRPEQGLEWIGRIDPANGNTMFASEFQGKATITAYTSSNTAYMQLSSLTSGDTAVYYCARSKIHYDYDEGFAYWGQGTLVTVSS
VL: NIVLTQSPPSLAVSLGQRATVSCRASESVDDYGYSFLHWYQQKPGQPPKLLIYRASNLESGIPARFSGSGSRTDFTLTINPVETDDVATYYCQQSNQNPRTFGGGTKLEIK
modifications: Synthetic: VH AA; Synthetic: VL AA

Assays:
Cyno FGFR2b [1] = assay: SPR affinity determination, cyno FGFR2b (Example 9); type: binding
Method: (§1) For affinity determination, antibodies were captured by anti-human Fc antibodies, and used in the affinity assay based on surface plasmon resonance (SPR) technology. SPR signals were analyzed to calculate the association rates (ka) and dissociation rates (kd) by using the one-to-one Langmuir binding model (BIA Evaluation Software, GE Life Sciences). The equilibrium dissociation constant (KD) was calculated as the ratio of kd/ka. Rmax represents the maximal feasible SPR signal generated by an interaction between a ligand-analyte pair and is represented in response units (RU). BGAh9239 and BGA9179 show similar binding profiles to human FGFR2b and cyno FGFR2b, and are similar to their parental antibodies BGAm1823 and BGAm1371, respectively.

human FGFR2b [2] = biological target: T1, human FGFR2b (Homo sapiens, UniProt P21802); assay: ELISA binding to recombinant human FGFR2b (Example 11)
T1 sequence (P21802 22-822 isoform P21802-3 limits assumed): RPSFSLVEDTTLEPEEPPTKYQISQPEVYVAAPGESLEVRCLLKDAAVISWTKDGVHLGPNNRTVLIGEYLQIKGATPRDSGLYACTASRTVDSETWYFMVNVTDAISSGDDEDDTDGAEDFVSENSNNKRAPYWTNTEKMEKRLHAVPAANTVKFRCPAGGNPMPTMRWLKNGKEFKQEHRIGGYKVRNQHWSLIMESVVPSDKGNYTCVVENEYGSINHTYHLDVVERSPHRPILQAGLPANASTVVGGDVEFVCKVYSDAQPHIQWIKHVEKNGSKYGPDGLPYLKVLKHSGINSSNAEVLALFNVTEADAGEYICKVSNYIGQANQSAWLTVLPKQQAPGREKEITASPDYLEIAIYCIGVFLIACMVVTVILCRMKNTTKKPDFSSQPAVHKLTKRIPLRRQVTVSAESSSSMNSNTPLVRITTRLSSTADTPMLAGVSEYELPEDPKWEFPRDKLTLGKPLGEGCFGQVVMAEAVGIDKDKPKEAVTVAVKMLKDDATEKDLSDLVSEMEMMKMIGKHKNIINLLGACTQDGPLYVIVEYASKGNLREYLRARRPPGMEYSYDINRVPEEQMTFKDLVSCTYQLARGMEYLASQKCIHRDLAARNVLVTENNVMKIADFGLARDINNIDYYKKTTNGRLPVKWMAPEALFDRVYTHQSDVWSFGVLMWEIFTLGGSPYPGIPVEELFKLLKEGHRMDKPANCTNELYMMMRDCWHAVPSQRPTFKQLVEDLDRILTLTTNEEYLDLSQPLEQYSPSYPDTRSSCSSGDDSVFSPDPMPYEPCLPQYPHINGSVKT

Human FGFR2c [3] = biological target: T2, Human FGFR2c (Homo sapiens, UniProt P21802); assay: ELISA binding to recombinant human FGFR2c (Example 11); settings: for Emax (A450): human FGFR2c; for binding to human FGFR2c: in words
T2 sequence (P21802 22-821): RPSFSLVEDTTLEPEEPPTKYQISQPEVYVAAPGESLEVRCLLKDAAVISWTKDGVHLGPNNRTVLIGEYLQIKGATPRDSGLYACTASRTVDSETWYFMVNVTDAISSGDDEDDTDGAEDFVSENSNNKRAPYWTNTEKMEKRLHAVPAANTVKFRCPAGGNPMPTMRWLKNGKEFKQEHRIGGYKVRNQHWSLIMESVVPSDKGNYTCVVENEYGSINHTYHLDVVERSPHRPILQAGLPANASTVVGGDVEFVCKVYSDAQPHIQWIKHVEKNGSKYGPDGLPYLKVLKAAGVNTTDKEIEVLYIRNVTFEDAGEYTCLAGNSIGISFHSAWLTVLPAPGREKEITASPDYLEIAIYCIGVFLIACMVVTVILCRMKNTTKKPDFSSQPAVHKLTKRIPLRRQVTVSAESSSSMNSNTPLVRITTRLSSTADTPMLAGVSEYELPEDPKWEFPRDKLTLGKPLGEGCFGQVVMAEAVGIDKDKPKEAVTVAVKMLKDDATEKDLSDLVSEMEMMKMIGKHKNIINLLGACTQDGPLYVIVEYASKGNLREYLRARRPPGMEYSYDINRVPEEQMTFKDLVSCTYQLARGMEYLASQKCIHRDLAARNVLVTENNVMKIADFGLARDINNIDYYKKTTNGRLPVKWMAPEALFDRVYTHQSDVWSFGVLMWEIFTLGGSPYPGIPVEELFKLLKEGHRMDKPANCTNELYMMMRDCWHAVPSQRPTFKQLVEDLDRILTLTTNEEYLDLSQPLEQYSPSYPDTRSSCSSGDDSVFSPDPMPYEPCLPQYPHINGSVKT

Mouse FGFR2b = biological target: T3, Mouse FGFR2b (Mus musculus, UniProt P21803); assay: FACS binding on Expi293 cells, mouse FGFR2b (Example 10); settings: Expi293 cells overexpressing mouse FGFR2b
T3 construct: expressed in transfected cells; host or cells: Expi293
T3 sequence (P21803 22-707 isoform P21803-2 limits assumed): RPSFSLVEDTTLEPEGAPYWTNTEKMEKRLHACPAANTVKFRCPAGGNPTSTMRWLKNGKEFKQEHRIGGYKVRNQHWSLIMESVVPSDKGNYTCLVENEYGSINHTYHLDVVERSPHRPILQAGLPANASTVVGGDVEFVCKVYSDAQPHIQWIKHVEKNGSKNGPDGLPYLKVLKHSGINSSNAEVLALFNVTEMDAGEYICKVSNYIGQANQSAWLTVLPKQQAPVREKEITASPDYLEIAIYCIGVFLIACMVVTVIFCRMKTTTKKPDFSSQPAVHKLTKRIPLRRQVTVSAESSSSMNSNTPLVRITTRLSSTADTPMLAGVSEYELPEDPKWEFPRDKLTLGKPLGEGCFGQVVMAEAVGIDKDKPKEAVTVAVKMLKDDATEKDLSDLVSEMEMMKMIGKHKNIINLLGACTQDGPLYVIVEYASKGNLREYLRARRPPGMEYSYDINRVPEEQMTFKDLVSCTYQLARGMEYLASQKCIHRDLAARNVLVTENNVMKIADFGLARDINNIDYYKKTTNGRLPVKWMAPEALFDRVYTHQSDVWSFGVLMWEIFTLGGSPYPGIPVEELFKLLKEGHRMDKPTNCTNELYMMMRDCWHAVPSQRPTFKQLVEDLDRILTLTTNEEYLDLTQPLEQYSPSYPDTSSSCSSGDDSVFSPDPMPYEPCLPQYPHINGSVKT
Method: (§2) To evaluate the binding activity of anti-FGFR2b antibodies to native FGFR2b on living cells, Expi293 cells were engineered to overexpress human FGFR2b, cyno FGFR2b, mouse FGFR2b, or human FGFR2c. Expi293 cells expressing antigens were seeded in 96-well plates, and were incubated with serially diluted anti-FGFR2b antibodies. Goat anti-human IgG [Alexa Fluor® 647] […] The change of mean fluorescent intensity (MFI) of humanized candidates BGAh9239 and BGAh9179 was measured by flow cytometry. EC50 values for dose-dependent binding to native human FGFR2b, cyno FGFR2b, mouse FGFR2b, and human FGFR2c were determined using sigmoidal dose-response curves of nonlinear fit from GraphPad Prism™.

Human FGFR2c OE cells = Human FGFR2c OE cells (Homo sapiens, UniProt P21802); assay: FACS cellular binding, human FGFR2c OE cells (Example 4)
Human FGFR2c OE cells, sequence (P21802 22-821): as the sequence (P21802 22-821) above
Method: (§3) The binding affinity and specificity of purified anti-FGFR2b antibodies were determined by ELISA and FACS. […] After incubation and washing, the plates were developed with HRP substrate and absorbance was measured. […] After washing twice with FACS buffer, diluted Alexa Fluor 647 goat anti-human IgG secondary antibody was added and incubated with cells for 30 minutes at 4° C. in the dark. After washing twice with FACS buffer, cells were resuspended with FACS buffer and read using a Becton Dickinson LSR FortessaTM cell analyzer. Non-specific binding of these antibodies was evaluated by FACS binding against parental 293T blank cells. Titration curves were generated using a sigmoidal dose-response of nonlinear fit from GraphPadTM Software by Dotmatics.

Murine FGFR2b OE cells = biological target: T4, Murine FGFR2b OE cells (Mus musculus, UniProt P21803); assay: FACS cellular binding, murine FGFR2b OE cells (Example 4)
T4 construct: expressed in transfected cells; host or cells: 293T
T4 sequence (P21803 22-707 isoform P21803-2 limits assumed): as the sequence (P21803 22-707 isoform P21803-2 limits assumed) above
Method: as §3

Human FGFR2c [4] = biological target: T2, Human FGFR2c; assay: ELISA protein binding to human FGFR2c (Example 4); settings: coated protein
Method: as §3

[5] = biological target: T5, soluble human FGFR2b proteins (Homo sapiens, UniProt P21802); assay: SPR binding kinetics (Biacore 8K, Example 5); settings: room temperature
T5 construct: soluble human FGFR2b proteins (his tag, in-house generated); His tag; made in house
T5 sequence (P21802 22-378 isoform P21802-3 limits assumed): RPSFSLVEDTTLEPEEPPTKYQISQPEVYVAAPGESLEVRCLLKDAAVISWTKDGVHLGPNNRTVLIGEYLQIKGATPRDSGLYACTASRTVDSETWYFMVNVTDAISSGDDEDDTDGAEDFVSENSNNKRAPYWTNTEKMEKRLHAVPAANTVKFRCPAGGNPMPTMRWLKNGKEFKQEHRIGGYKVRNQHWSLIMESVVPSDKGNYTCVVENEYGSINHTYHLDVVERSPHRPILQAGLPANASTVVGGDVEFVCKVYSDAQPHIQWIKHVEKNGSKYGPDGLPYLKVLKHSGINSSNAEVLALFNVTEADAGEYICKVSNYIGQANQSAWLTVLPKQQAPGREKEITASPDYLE
Method: The binding affinity and kinetics of purified anti-FGFR2b antibodies were determined by surface plasmon resonance (Biacore 8K, GE Life Sciences) at room temperature. Briefly, mouse anti-human IgG Fc antibody was immobilized via amine coupling onto a activated CM5 biosensor chip (Cat. No. BR100530, GE Life Sciences). Purified monoclonal antibody candidates were flowed over the chip surface and captured by anti-human IgG antibody. Then a serial dilution of soluble human FGFR2b proteins (his tag, in-house generated) were injected over the antibodies captured surface and changes in surface plasmon resonance signals were analyzed to calculate the association rates (kon) and dissociation rates (koff) by using the one-to-one Langmuir binding model (BIA Evaluation Software, GE Life Sciences). The equilibrium dissociation constant (KD) was calculated as the ratio koff/kon.

Human FGFR2c [6] = biological target: T2, Human FGFR2c; assay: FACS binding on Expi293 cells, human FGFR2c (Example 10); settings: for Emax (MFI): Expi293 cells overexpressing human FGFR2c
Method: as §2

293T blank cells = assay: FACS non-specific binding, parental 293T blank cells (Example 4)
Method: as §3

human FGFR2b [7] = biological target: T1, human FGFR2b; assay: FACS binding to native FGFR2b on Expi293 cells, human FGFR2b (Example 10); settings: Expi293 cells overexpressing human FGFR2b
Method: as §2

Human FGFR2b OE cells = biological target: T6, Human FGFR2b OE cells (Homo sapiens, UniProt P21802); assay: FACS cellular binding, human FGFR2b OE cells (Example 4)
T6 construct: expressed in transfected cells; host or cells: 293T
T6 sequence (P21802 22-822 isoform P21802-3 limits assumed): as the sequence (P21802 22-822 isoform P21802-3 limits assumed) above
Method: as §3

human FGFR2b [8] = biological target: T1, human FGFR2b; assay: ELISA protein binding to human FGFR2b (Example 4); settings: coated protein
Method: as §3

Cyno FGFR2b [9] = assay: ELISA binding to recombinant cyno FGFR2b (Example 11)
human FGFR2b [10] = biological target: T1, human FGFR2b; assay: SPR affinity determination, human FGFR2b (Example 9); type: binding; settings: for Kd: kd/ka
Method: as §1

[11] = test system: phosphorylated FGFR in SNU-16 cells; assay: Inhibition of FGFR2 signaling in SNU-16 cells (Western blot of pFGFR); type: cell-based; settings: antibody 10 μg/ml, FGF7 10 ng/ml, 2 hours
Method: Inhibition of the FGFR2 signaling pathway by the humanized antibodies was investigated. SNU-16 cells were grown in RPMI-1640 medium with 10% FBS, collected and washed twice with free medium and then seeded in 12-well plates at 1.5E6 cells/well in serum-free RPMI-1640. The plates were incubated at 37° C., 5% CO2, and 95% humidity in an incubator overnight. Anti-FGFR2b antibodies at a concentration of 10 μg/ml were added to the assay plates. Recombinant human FGF7 or FGF10 protein (10 ng/ml) in the presence of heparin (5 μg/ml) was added to the assay plates. The plates were incubated in a 37° C., 5% CO2, 95% humidity incubator for 2 hours. Following 2 hours incubation, cells were collected and washed twice with cold PBS. NP40 lysis buffer containing 1×PMSF and 1× Protease plus phosphatase inhibitors were added to the cell pellets. The mixture was pipetted up and down to suspend the pellet. The mixture was inverted gently and each placed for 10 minutes on ice, for a total of 30 minutes. The mixture was centrifuged at 12000× rpm for 10 minutes to pellet the cell debris. The supernatant was transferred to a new tube to quantify total protein concentration by BCA Kit. The protein samples were then split and stored at −80° C. for further Western blotting to detect the expression of pFGFR and total FGFR2.
Western blotting procedure: The completely thawed protein samples were mixed with 4×SDS loading buffer and were heated for 10 min at 37° C. Then the mixtures were centrifuged at ˜3500×rpm for 5 min. Equal amounts of proteins were loaded into an SDS-PAGE gel, whereafter proteins were transferred to PVDF membranes using iBlot. The membranes were then subjected to Western blotting analysis, focusing on phosphorylated FGFR and total FGFR2.

BaF3_hFGFR2b OE cells = assay: Ligand-induced proliferation inhibition assay in BaF3_hFGFR2b OE cells; type: cell-based; settings: antibody 10 μg/ml, heparin 5 μg/ml, 72 hours
Method: The inhibition activity of antibody on ligand-induced cell proliferation was evaluated in an FGFR2b engineered BaF3 cell line system (BaF3_hFGFR2b OE). BaF3 cells are dependent on interleukin-3 (IL-3) for growth. The BaF3 system allows for testing of kinases and kinase inhibitors. Some protein kinases can render BaF3 cells to be independent of IL-3, whereas kinase inhibitors antagonize this effect. Cells were seeded in 96-well plates at 30,000 cells/well in RPMI-1640 medium containing 10% fetal bovine serum. Anti-FGFR2b antibodies at a concentration of 10 μg/ml were added to the assay plates. Recombinant human FGF7 or FGF10 protein (40 ng/ml) in the presence of heparin (5 μg/ml) was added to the assay plates. The plates were incubated at 37° C., 5% CO2, 95% humidity in an incubator for 72 hours. Following incubation, 50 μl Cell Titer Glo reagent was added to each well and the plates were mixed for 1 min and then incubated at RT for 10 min. Luminescence signals were detected and recorded.
The Ba/F3 system is used to investigate downstream oncogenic signaling pathways and the susceptibility of driver variants to therapeutics. Driver-addicted Ba/F3 cells die when the driver-engaged signaling pathway is inhibited, and this effect can be rescued by re-introduction of […].
FIGS. 6 and 7 show the results of Ba/F3 proliferation assays. The net growth on Ba/F3 cells overexpressing FGFR2b is reported after treatment with anti-FGFR2b antibodies of the present disclosure. Normal Ba/F3 cells die shortly after withdrawal of exogenous […]. […] Comparator BGA2311 binds at the N-terminus and is not considered to be a ligand blocker. Thus, BGAm1371 may partially block the FGFR2b signaling pathway, such as the signaling pathway mediated by FGF7.

Molecule	ka (Cyno FGFR2b [1])	kd (Cyno FGFR2b [1])	EC50 (human FGFR2b [2])	Emax (A450) (human FGFR2b [2])	Emax (A450) (Human FGFR2c [3])	binding to human FGFR2c (Human FGFR2c [3])	EC50 (Mouse FGFR2b)	Emax (MFI) (Mouse FGFR2b)	Human FGFR2c OE cells binding Emax (Human FGFR2c OE cells)	EC50 (Murine FGFR2b OE cells)	Human FGFR2c binding Emax(OD450) (Human FGFR2c [4])	Emax (MFI) (Human FGFR2c [6])	293T blank cells binding Emax (293T blank cells)	EC50 (human FGFR2b [7])	Emax (MFI) (human FGFR2b [7])	EC50 (Human FGFR2b OE cells)	EC50 (human FGFR2b [8])	Human FGFR2b binding Emax(OD450) (human FGFR2b [8])	Emax (A450) (Cyno FGFR2b [9])	Rmax (human FGFR2b [10])	other results
B1	7.99E+04 M^−1S^−1	2.72E−03 S^−1	0.031 nM	2.945 A450	0.130 A450	no detectable binding	2.67 nM	5098781 MFI	36 MFI	1.59 nM	0.07 OD450	23848 MFI	31 MFI	2.4 nM	3082608 MFI	1.84 nM	0.26 nM	3.37 OD450	2.931 A450	80.9 RU	ka ([5]; antibody captured): 76600 M⁻¹ s⁻¹; kd ([5]; antibody captured): 0.00189 s⁻¹; Kd ([5]; koff/kon): 24.7 nM; binding to native human FGFR2c (Human FGFR2c [6]; living Expi293 cells, in words): no detectable binding; ka (human FGFR2b [10]): 8.05E+04 M^−1S^−1; kd (human FGFR2b [10]): 3.00E−03 S^−1; Kd (human FGFR2b [10]): 37.3 nM
B2	7.97E+04 M^−1S^−1	1.25E−03 S^−1	0.0309 nM	3.013 A450	0.204 A450	no detectable binding	3.5 nM	4984598 MFI	33 MFI	1.78 nM	0.07 OD450	23051 MFI	28 MFI	1.5 nM	3052664 MFI	1.25 nM	0.19 nM	3.35 OD450	3.018 A450	96.3 RU	FGF7-induced FGFR phosphorylation [11]: weakly inhibited; inhibition of FGF7-induced BaF3_hFGFR2b cell proliferation (BaF3_hFGFR2b OE cells; FGF7 40 ng/ml): ten times less potent compared to BGA1421 and BGAm1823; also recorded: weaker blocking than comparator BGA1421; inhibition of FGF10-induced BaF3_hFGFR2b cell proliferation (BaF3_hFGFR2b OE cells; FGF10 40 ng/ml): did not inhibit the net growth; ka (human FGFR2b [10]): 7.29E+04 M^−1S^−1; kd (human FGFR2b [10]): 1.19E−03 S^−1; Kd (human FGFR2b [10]): 16.3 nM
